Molecular target: human BAFF (residues 82-285) (human) (UniProt Q9Y275)
Assay: BJAB cell competitive binding assay: soluble BR3-Fc keeps biotin-BAFF from BR3 on the cells

human BAFF (residues 82-285) (human), sequence (Q9Y275 82-285 limits assumed): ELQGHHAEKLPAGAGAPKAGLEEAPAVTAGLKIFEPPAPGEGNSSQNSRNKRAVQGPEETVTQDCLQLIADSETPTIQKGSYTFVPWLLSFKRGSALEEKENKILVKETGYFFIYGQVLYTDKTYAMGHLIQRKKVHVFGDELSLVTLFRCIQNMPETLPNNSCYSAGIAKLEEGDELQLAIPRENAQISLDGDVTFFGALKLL

IC50: 3.22 nM
Substance: hBR3Fc (Fc fusion)
